Experimental data from PMC3077550 (Nature cell biology, 2011).

T1: GST-PP2AB’α (Arabidopsis thaliana, UniProt O04375 1-495)
T1 sequence (looked up): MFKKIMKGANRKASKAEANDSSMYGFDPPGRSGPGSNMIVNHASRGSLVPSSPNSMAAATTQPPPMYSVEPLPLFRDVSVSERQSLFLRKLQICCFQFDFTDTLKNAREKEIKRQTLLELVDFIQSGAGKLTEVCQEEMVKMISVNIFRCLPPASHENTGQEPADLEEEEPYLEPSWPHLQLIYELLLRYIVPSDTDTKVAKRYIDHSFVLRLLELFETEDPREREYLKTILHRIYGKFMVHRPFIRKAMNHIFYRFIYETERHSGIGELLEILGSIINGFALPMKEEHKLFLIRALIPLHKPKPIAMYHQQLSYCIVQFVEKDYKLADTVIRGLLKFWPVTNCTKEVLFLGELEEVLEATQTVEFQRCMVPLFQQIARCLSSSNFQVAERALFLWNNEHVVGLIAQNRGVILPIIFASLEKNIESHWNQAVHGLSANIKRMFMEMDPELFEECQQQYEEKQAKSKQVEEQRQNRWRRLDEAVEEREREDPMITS

T2: GST-BIN2 (Arabidopsis thaliana, UniProt Q39011 1-380)
T2 sequence (looked up): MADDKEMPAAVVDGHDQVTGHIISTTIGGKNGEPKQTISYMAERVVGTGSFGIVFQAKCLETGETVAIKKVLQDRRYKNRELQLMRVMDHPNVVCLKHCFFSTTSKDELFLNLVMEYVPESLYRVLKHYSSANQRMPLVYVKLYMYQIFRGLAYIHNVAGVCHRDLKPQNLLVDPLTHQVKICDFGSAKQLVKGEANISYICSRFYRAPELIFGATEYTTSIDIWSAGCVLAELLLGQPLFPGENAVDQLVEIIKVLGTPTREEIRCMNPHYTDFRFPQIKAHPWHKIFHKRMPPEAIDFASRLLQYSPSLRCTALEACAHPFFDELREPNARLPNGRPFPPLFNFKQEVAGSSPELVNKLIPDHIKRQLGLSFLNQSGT


How the values were obtained:
GST-PP2AB’α = target: T1, GST-PP2AB’α; experiment: far-Western, overlay or dot blot
GST-BIN2 = target: T2, GST-BIN2; experiment: far-Western, overlay or dot blot

Row | Binder | binding result (GST-PP2AB’α) | binding result (GST-BIN2)
1 | MBP-BZR1 (unphosphorylated) (natural protein, Arabidopsis thaliana, UniProt Q8S307 1-336, looked up) MTSDGATSTSAAAAAAAAAAARRKPSWRERENNRRRERRRRAVAAKIYTGLRAQGDYNLPKHCDNNEVLKALCVEAGWVVEEDGTTYRKGCKPLPGEIAGTSSRVTPYSSQNQSPLSSAFQSPIPSYQVSPSSSSFPSPSRGEPNNNMSSTFFPFLRNGGIPSSLPSLRISNSCPVTPPVSSPTSKNPKPLPNWESIAKQSMAIAKQSMASFNYPFYAVSAPASPTHRHQFHTPATIPECDESDSSTVDSGHWISFQKFAQQQPFSASMVPTSPTFNLVKPAPQQMSPNTAAFQEIGQSSEFKFENSQVKPWEGERIHDVGMEDLELTLGNGKARG | binds | binds
2 | MBP-bzr1-1D (natural protein, Arabidopsis thaliana, UniProt Q8S307 1-336, looked up) MTSDGATSTSAAAAAAAAAAARRKPSWRERENNRRRERRRRAVAAKIYTGLRAQGDYNLPKHCDNNEVLKALCVEAGWVVEEDGTTYRKGCKPLPGEIAGTSSRVTPYSSQNQSPLSSAFQSPIPSYQVSPSSSSFPSPSRGEPNNNMSSTFFPFLRNGGIPSSLPSLRISNSCPVTPPVSSPTSKNPKPLPNWESIAKQSMAIAKQSMASFNYPFYAVSAPASPTHRHQFHTLATIPECDESDSSTVDSGHWISFQKFAQQQPFSASMVPTSPTFNLVKPAPQQMSPNTAAFQEIGQSSEFKFENSQVKPWEGERIHDVGMEDLELTLGNGKARG | binds | binds
